Reference: US20240287172A1 (SCIRHOM, published 2024)

B1: antibody 16 (antibody, V domains shown)
VH: QVTLKESGPGILQPSQTLSLTCSFSGFSLSTFALGVGWIRQPSGRGLEWLAHIWWDDDKYYNPALKSRLTISKDTSKNHVFLKIANVDTADTATYYCARITTYYYGMDYWGQGTSVTVSS
VL: DIVLSQSPATLSVTPGDSVSLFCRASQSIGNHLHWYQQESHASPRLLIKYASQSISGIPSRFSGSGSGTDFTLSINSVETEDFGMYFCQQSYNWPLTFGAGTKLELK
notes: mouse IgG, kappa light chain; also called clone #16; purified antibody 16
B2: antibody 3 (antibody, V domains shown)
VH: QVTLKESGPGILQPSQTLSLTCSFSGFSLTTFAMGIGWVRQPSGKGLEWLAHIWWDGEKYNNPVLKSRLTISKDTSKNQVFLRIANVDTPDTATYYCARISSIYYIIDNWGQGTSVTVSS
VL: DIVLTQSPATLSVTPGHSVSLSCRASQSISNNLHWYQKKSHESPRLLIKYVSQSISGIPSRFSGSGSGTDFTLSINSVETEDFGMYFCQQSYNWPLTFGAGTKLELK
notes: mouse IgG, kappa light chain; also called clone #3; purified antibody 3
B3: antibody 34 (antibody, V domains shown)
VH: QVTLKESGPGILQPSQTLSLTCSFSGFSLSTFSLGVGWIRQSSGKGLEWLAHIWWDDEKYYNPALKSRLTISKDTSKNQVFLKIANVDAADTATYYCARAYYSKSYYALDYWGQGTSVTVSS
VL: DIQMTQSPSSLSASLGERVSLTCRASQEISGYLSWLQQKPDGTIKRLIYAASTLDSGVPKRFSGSRSGSDYSLAISSLESEDFADYYCLQYANFPFTFGSGTKLEIK
notes: mouse IgG, kappa light chain; also called clone #34; purified antibody 34
B4: antibody 5 (antibody, V domains shown)
VH: QVTLKESGPGILQPSQTLSLTCSFSGFSLSTFGMGVGWIRQPSGKGLEWLAHIWWDDEKYYNSALKSRLTISKATSKNQAFLKIANVDTADTATYYCARISNYGSNYWYFNVWGTGTTVTVSS
VL: QVVLTQSPALMSASPGEKVTMTCSAGSSVSCMYWYQQKPGSSPRVLIYDTSNLASGVPARFTGSGSGTSYSLTISRMEAEDAASYYCQQWNSYPLTFGAGTKLELK
notes: mouse IgG, kappa light chain; also called clone #5; purified antibody 5
B5: antibody 43 (antibody, V domains shown)
VH: QVALKESGPGILQPSQTLSLTCSFSGFSLSTFGMGVGWIRQSSGKGLEWLANIWWDDDKYYNPALKSRLTISKDASKNQAFLKIANVDTADTATYYCARIGNYGSNYWYFDVWGTGTTVTVSS
VL: QIVLTQSPAIMSASPGERVTMTCSANSRISYMYWYQQKPGSSPRLLIYDTSNLASGVPVRFSGSGSGTSYSLTISRMEAEDAATYNCQQWSSYPLTFGAGTKLELK
notes: mouse IgG, kappa light chain; also called clone #43; purified antibody 43
B6: antibody 42 (antibody, V domains shown)
VH: QVTLKESGPGILQPSQTLSLTCSLSGFSLSTFGRGVGWIRQPSGKGLEWLAHIWWDDEKYYNPALKSRLTISKDTSKNQVFLRIANVDTADTATYYCARIQNYGSNYWYFDVWGTGTTVTVSS
VL: LIVLTQSPAIMSASPGEKVTMTCGATSRISYMFWYQQKPGSSPRVLIYDTSNLASGVPVRFSGSGSGTSYSLTISRVEAEDVATYYCQQWNSYPLTFGAGTKLELK
notes: mouse IgG, kappa light chain; also called clone #42; purified antibody 42
B7: antibody 44 (antibody, V domains shown)
VH: QVTLKESGPGILQPSQTLSLTCSFSGFSLSTFGMGVGWIRQPSEKGLEWLAHIWWDDDKYYNPALKSRLTISKDTSKNQIFLKITNVDTAETATYYCSRIGNYGSNYWYFDVWGTGTTVTVSS
VL: QIVLTQSPAVMSASPGEKVTMTCTASSSVYYMYWYQQTPGSSPRLLIYDTSNLASGVPVRFSGSGSGTSYSLTISRMEAEDAATYYCQQWNTYPLTFGAGTKLELK
notes: mouse IgG, kappa light chain; also called clone #44; purified antibody 44
B8: antibody 22 (antibody, V domains shown)
VH: QVTLKESGPGILQPSQTLSLTCSFSGFSLSTFGMGVGWIRQPSGKGLEWLAHIWWDDEKYYNSALKSRLTISKATSKNQVFLKIANVDTADTATYYCARISNYGSNYWYFNVWGTGTTVTVSS
VL: QVVLTQSPALMSASPGEKVTMTCSAGSSVSYMYWYQQKPGSSPRVLIYDTSNLASGVPARFTGSGSGTSYSLTISRMEAEDAATYYCQQWNSYPLTFGAGTKLELK
notes: mouse IgG, kappa light chain; also called clone #22; purified antibody 22

molecular target: T1, hiR2-FL-M534-T7 (deletion of M534) (human, UniProt Q6PJF5 1-856); experiment: FACS, MEF-DKO cells, 3 µg/ml
T1 construct: single amino acid deletion
T1 sequence: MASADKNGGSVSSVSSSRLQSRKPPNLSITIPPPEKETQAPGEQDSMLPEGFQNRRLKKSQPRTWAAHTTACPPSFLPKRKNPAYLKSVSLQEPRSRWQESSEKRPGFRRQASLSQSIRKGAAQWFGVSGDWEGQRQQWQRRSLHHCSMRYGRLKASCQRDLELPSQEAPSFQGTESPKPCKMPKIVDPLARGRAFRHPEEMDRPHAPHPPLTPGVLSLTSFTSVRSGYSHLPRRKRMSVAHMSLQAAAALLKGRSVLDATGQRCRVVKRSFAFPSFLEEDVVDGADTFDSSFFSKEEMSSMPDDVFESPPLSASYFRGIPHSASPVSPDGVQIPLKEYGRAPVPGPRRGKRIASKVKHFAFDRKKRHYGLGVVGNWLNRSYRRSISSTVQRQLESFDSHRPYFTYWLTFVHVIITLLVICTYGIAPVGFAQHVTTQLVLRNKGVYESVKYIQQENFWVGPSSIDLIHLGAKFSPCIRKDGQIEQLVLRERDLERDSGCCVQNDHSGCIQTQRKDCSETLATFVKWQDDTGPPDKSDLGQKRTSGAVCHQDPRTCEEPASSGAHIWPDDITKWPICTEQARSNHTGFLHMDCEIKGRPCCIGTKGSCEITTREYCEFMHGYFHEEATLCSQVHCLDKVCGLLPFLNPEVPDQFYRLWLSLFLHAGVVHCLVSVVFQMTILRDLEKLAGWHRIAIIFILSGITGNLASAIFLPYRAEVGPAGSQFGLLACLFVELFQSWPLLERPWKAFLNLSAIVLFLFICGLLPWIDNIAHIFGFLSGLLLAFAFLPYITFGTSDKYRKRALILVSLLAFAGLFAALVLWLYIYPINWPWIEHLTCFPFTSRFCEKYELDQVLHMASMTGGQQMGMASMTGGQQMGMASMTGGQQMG
Excerpt: In brief, immortalized MEF-DKO-hiR2-FL-G498A-T7, MEF-DKO-hiR2-FL-Q502R-T7, MEF-DKO-hiR2-FL-I509V-T7, MEF-DKO-hiR2-FL-Q512S-T7, MEF-DKO-hiR2-FL-R513E-T7, MEF-DKO-hiR2-FL-K514E-T7, MEF-DKO-hiR2-FL-D515E-T7, MEF-DKO-hiR2-FL-E518S-T7, MEF-DKO-hiR2-FL-T522V-T7, MEF-DKO-hiR2-FL-F523W-T7, MEF-DKO-hiR2-FL-Q527P-T7, MEF-DKO-hiR2-FL-D528I-T7, MEF-DKO-hiR2-FL-D529H-T7, MEF-DKO-hiR2-FL-T530P-T7, MEF-DKO-hiR2-FL-G531S-T7, MEF-DKO-hiR2-FL-P532A-T7, MEF-DKO-hiR2-FL-M534-T7, MEF-DKO-hiR2-FL-D535-T7, MEF-DKO-hiR2-FL-K536-T7, MEF-DKO-hiR2-FL-S537E-T7, MEF-DKO-hiR2-FL-D538L-T7, MEF-DKO-hiR2-FL-L539A-T7, MEF-DKO-hiR2-FL-Q541H-T7, MEF-DKO-hiR2-FL-T544Q-T7, MEF-DKO-hiR2-FL-S545F-T7, MEF-DKO-hiR2-FL-A547S-T7, MEF-DKO-hiR2-FL-T555V-T7, MEF-DKO-hiR2-FL-E557D-T7, MEF-DKO-hiR2-FL-A560S-T7 and MEF-DKO-hiR2-FL-S562E-T7 cells were harvested with 10 mM EDTA in PBS, washed and resuspended in FACS buffer (PBS, 3% FBS, 0.05% sodium azide), and seeded in Nunc U-bottom 96-well plates (Thermo Fisher Scientific, USA) at approximately 3×10⁵ cells per well. To pellet cells and remove supernatants, the plates were centrifuged at 1,500 rpm and 4° C. for 3 minutes. For primary staining, cells were resuspended in 100 μl per well of either FACS buffer alone (controls) or the purified antibodies 3, 5, 16, 22, 34, 42, 43, 44, 48, and 50 of the invention at 3 μg/ml in FACS buffer and incubated on ice for 1 hour. Afterwards, plates were centrifuged at 1,500 rpm and 4° C. for 3 minutes and washed twice with 200 μl per well of FACS buffer. For secondary staining, cells were spun down and resuspended in 100 μl per well of PE-conjugated goat anti-mouse IgG F(ab′)2 detection fragment (Dianova, Germany) diluted 1:100 in FACS buffer. Protected from light, the cell suspensions were incubated on ice for 1 hour. Plates were then centrifuged at 1,500 rpm and 4° C. for 3 minutes and washed three times with 200 μl per well of FACS buffer. Finally, cells were resuspended in 150 μl per well of FACS buffer and analyzed using a BD Accuri™ C6 Plus flow cytometer (Becton Dickinson, Germany).

Binder	loss of binding vs wild type
B1	≥ 95%
B2	≥ 95%
B3	≥ 95%
B4	≥ 95%
B5	≥ 95%
B6	≥ 95%
B7	≥ 95%
B8	≥ 95%
